Test results reported in patent publication US12397052B2, “Microcapsule-based vaccine” (INSTITUTE OF PROCESS ENGINEERING, CHINESE ACADEMY OF …, priority 2018, dated 2025).

B1: simple antigen group: preparation of a simple fluorescent antigen (OVA labeled with dye Cy5), no carrier (protein, UniProt P01012 2-386, looked up)
Ovalbumin: GSIGAASMEFCFDVFKELKVHHANENIFYCPIAIMSALAMVYLGAKDSTRTQINKVVRFDKLPGFGDSIEAQCGTSVNVHSSLRDILNQITKPNDVYSFSLASRLYAEERYPILPEYLQCVKELYRGGLEPINFQTAADQARELINSWVESQTNGIIRNVLQPSSVDSQTAMVLVNAIVFKGLWEKAFKDEDTQAMPFRVTEQESKPVQMMYQIGLFRVASMASEKMKILELPFASGTMSMLVLLPDEVSGLEQLESIINFEKLTEWTSSNVMEERKIKVYLPRMKMEEKYNLTSVLMAMGITDVFSSSANLSGISSAESLKISQAVHAAHAEINEAGREVVGSAEAGVDAASVSEEFRADHPFLFCIKHIATNAVLFFGRCVSP
modifications: Cy5 dye label
notes: preparation of a simple fluorescent antigen (OVA labeled with dye Cy5), no carrier
B2: OVA: free OVA antigen (Sigma), low-dose several times or high-dose (60 μg) a single time (protein, UniProt P01012 2-386, looked up)
Ovalbumin: B1 Ovalbumin

What was measured:
OVA+ cells = experiment: Antigen utilization in thigh muscle by flow cytometry (OVA+ cells); format: in vivo, C57BL/6 mice; settings: 5th day
Protocol: Five days later, the mice were killed, and their muscle tissues containing the microspheres were taken out, cut into small pieces with scissors, ground into a suspension, resuspended in PBS at 4° C., and centrifuged to remove the supernatant. To the centrifugal residue, was added 1 mL of a solution of an enzyme mixture (made by dissolving collagenase D and 100 U/mL recombinant DNase I in RPMI 1640 medium) at a concentration of 1 mg/mL. The mixture was incubated at 37° C. for 30 min, washed with PBS, and subjected to filtration with a 20 μm cell sieve to get rid of impurities, giving a single-cell suspension. […] The BD LSRFortessa flow cytometer was used to detect OVA^+ cells, CD 11c^+OVA^+ cells, and F4/80^+OVA^+ cells, and the data was analyzed using the Flowjo software.
In the embedding group, as a result of the excellent antigen-retention capability and antigen-release capability, the number of OVA^+ cells increased by about 50 times, the endocytosis of OVA increased by 4 times or more, and the utilization of the antigen increased by 200 times or more. […] The utilization of the antigen was calculated by normalizing the number of OVA^+ cells multiplied by the fluorescence intensity using the utilization of the antigen of the simple antigen group.

E.G7 tumor cells = experiment: E.G7 lymphoma solid tumor model
Protocol: To construct E.G7 tumor-bearing mice models, 1×10^6 E.G7 tumor cells (purchased from ATCC) were injected into 6-8 weeks old female C57BL/6 mice (purchased from Beijing Weitonglihua Experimental Animal Co., Ltd.) on the armpit, and the tumor-bearing mice were randomly divided into groups each consisting of 6 mice. The mice were vaccinated when the tumor grew to a volume of 50-60 mm^3 on the 4th day. […] The volume of the tumor was calculated by this formula: V=1/2×L×W^2 (where L is the length of the tumor, and W is the width of the tumor).

Row | Molecule | fluorescence intensity of intracellular OVA (OVA+ cells) | number of OVA+ cells (OVA+ cells) | 25-day survival rate (SR) (E.G7 tumor cells; mouse, in vivo) | tumor growth (E.G7) (E.G7 tumor cells; vaccinated on 4th day)
1 | B1 | very weak | small |  | 
2 | B2 |  |  | 17% | not inhibited
